* marks the point of attachment. Quinaldoyl = O=C(c1ccc2ccccc2n1)*
T1: Human recombinant caspase-2 (human, UniProt P42575 170-452, limits assumed)
T1 sequence (looked up): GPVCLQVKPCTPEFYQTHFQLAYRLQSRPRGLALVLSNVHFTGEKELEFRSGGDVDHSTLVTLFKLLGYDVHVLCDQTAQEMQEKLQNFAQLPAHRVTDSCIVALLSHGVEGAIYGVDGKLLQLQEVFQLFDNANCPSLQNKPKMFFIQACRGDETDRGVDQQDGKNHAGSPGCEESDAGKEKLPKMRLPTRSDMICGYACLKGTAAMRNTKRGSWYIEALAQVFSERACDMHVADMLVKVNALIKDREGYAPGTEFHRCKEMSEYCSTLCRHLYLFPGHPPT

T2: Human recombinant caspase-6 (human, UniProt P55212 24-293, limits assumed)
T2 sequence (looked up): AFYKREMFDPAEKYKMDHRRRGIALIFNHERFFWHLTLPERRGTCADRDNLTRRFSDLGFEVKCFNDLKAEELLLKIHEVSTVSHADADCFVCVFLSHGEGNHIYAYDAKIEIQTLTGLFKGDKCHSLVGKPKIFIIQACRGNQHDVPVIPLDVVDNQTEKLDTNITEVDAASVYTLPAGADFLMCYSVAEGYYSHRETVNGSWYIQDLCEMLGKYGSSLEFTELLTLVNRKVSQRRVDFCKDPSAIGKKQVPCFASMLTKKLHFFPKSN

B1: Ac-LDEAD-cho (peptide)
peptide: Ac-LDEAD-aldehyde
SMILES: CC(=O)N[C@@H](CC(C)C)C(=O)N[C@@H](CC(=O)O)C(=O)N[C@@H](CCC(=O)O)C(=O)N[C@@H](C)C(=O)N[C@H](C=O)CC(=O)O
B2: Ac-FDESD-cho (peptide)
peptide: Ac-FDESD-aldehyde
SMILES: CC(=O)N[C@@H](Cc1ccccc1)C(=O)N[C@@H](CC(=O)O)C(=O)N[C@@H](CCC(=O)O)C(=O)N[C@@H](CO)C(=O)N[C@H](C=O)CC(=O)O
B3: Ac-VDESD-cho (peptide)
peptide: Ac-VDESD-aldehyde
SMILES: CC(=O)N[C@H](C(=O)N[C@@H](CC(=O)O)C(=O)N[C@@H](CCC(=O)O)C(=O)N[C@@H](CO)C(=O)N[C@H](C=O)CC(=O)O)C(C)C
B4: Ac-LDEKD-cho (peptide)
peptide: Ac-LDEKD-aldehyde
SMILES: CC(=O)N[C@@H](CC(C)C)C(=O)N[C@@H](CC(=O)O)C(=O)N[C@@H](CCC(=O)O)C(=O)N[C@@H](CCCCN)C(=O)N[C@H](C=O)CC(=O)O
B5: Ac-LDESD-cho (peptide)
peptide: Ac-LDESD-aldehyde
SMILES: CC(=O)N[C@@H](CC(C)C)C(=O)N[C@@H](CC(=O)O)C(=O)N[C@@H](CCC(=O)O)C(=O)N[C@@H](CO)C(=O)N[C@H](C=O)CC(=O)O
B6: Ac-LDEGD-cho (peptide)
peptide: Ac-LDEGD-aldehyde
SMILES: CC(=O)N[C@@H](CC(C)C)C(=O)N[C@@H](CC(=O)O)C(=O)N[C@@H](CCC(=O)O)C(=O)NCC(=O)N[C@H](C=O)CC(=O)O
B7: Ac-VDEAD-cho (peptide)
peptide: Ac-VDEAD-aldehyde
SMILES: CC(=O)N[C@H](C(=O)N[C@@H](CC(=O)O)C(=O)N[C@@H](CCC(=O)O)C(=O)N[C@@H](C)C(=O)N[C@H](C=O)CC(=O)O)C(C)C

biological target: T1, Human recombinant caspase-2; assay: cell-based or functional assay

Binder | IC50, inhibition of caspase-2
Quinaldoyl-VDVAD-{CH2O(2,6-difluorophenyl)} [Qco-VDVAD-CH2O(2,6-difluorophenyl)] | 80 nM

biological target: T2, Human recombinant caspase-6; assay: cell-based or functional assay

Binder | IC50, inhibition of Ac-VEID-AMC cleavage by human recombinant caspase-6
B1 | ~2000 nM

biological target: T1, Human recombinant caspase-2; assay: cell-based or functional assay; remark: another data set of the same source

Binder | IC50 (nM), inhibition of Ac-VDVAD-AMC cleavage by human recombinant caspase-2
B1 | 85 nM
B2 | 800 nM
B3 | 175 nM
B4 | 300 nM
B5 | 300 nM
Ac-VDVAD-aldehyde [Ac-VDVAD-cho] | 75 nM
B6 | 430 nM
Ac-VDEGD-aldehyde [VDEGD pentapeptidic-based inhibitor] | 260 nM
B7 | 85 nM

Reference: patent US20090042805A1 (CHIESI FARMACEUTICI S P A, published 2009)
